In the assay the target is each PDZ domain-containing protein (GST-DLG1, GST-NeDLG, and GST-PSD95 fusion proteins of FIG. 9B). Kind of assay: 30 µM biotinylated peptide on plate-bound GST-PDZ fusions, streptavidin-HRP (FIG. 9B).

Several values for one entry are separate records, joined by “and”; a condition that tells them apart may be missing. Identical values can stand only once.

B1: biotinylated synthetic peptide corresponding to the C-terminal 20 amino acids of CLASP-2 (peptide)
peptide: VLHHHQNPEFYDEIKIELPTQLHEKHHLLLTFFHVSCDNSSKGSTKKRDVVETQVGYSWLPLLKDGRVVTSEQHIPVSANLPSGYLGYQELGMGRHYGPEIKWVDGGKPLLKISTHLVSTVYTQDQHLHNFFQYCQKTESGAQALGNELVKYLKSLHAMEGHVMIAFLPTILNQLFRVLTRATQEEVAVNVTRVIIHVVAQCHEEGLESHLRSYVKYAYKAEPYVASEYKTVHEELTKSMTTILKPSADFLTSNKLLRYSWFFFDVLIKSMAQHLIENSKVKLLRNQRFPASYHHAAETVVNMLMPHITQKFGDNPEASKNANHSLAVFIKRCFTFMDRGFVFKQINNYISCFAPGDPKTLFEYKFEFLRVVCNHEHYIPLNLPMPFGKGRIQRYQDLQLDYSLTDEFCRNHFLVGLLLREVGTALQEFREVRLIAISVLKNLLIKHSFDDRYASRSHQARIATLYLPLFGLLIENVQRINVRDVSPFPVNAGMTVKDESLALPAVNPLVTPQKGSTLDNSLHKDLLGAISGIASPYTTSTPNINSVRNADSRGSLISTDSGNSLPERNSEKSNSLDKHQQSSTLGNSVVRCDKLDQSEIKSLLMCFLYILKSMSDDALFTYWNKASTSELMDFFTISEVCLHQFQYMGKRYIARNQEGLGPIVHDRKSQTLPVSRNRTGMMHARLQQLGSLDNSLTFNHSYGHSDADVLHQSLLEANIATEVCLTALDTLSLFTLAFKNQLLADHGHNPLMKKVFDVYLCFLQKHQSETALKNVFTALRSLIYKFPSTFYEGRADMCAALCYEILKCCNSKLSSIRTEASQLLYFLMRNNFDYTGKKSFVRTHLQVIISVSQLIADVVGIGETRFQQSLSIINNCANSDRLIKHTSFSSDVKDLTKRIRTVLMATAQMKEHENDPEMLVDLQYSLAKSYASTPELRKTWLDSMARIHVKNGDLSEAAMCYVHVTALVAEYLTRKGVFRQGCTAFRVITPNIDEEASMMEDVGMQDVHFNEDVLMELLEQCADGLWKAERYELIADIYKLIIPIYEKRRDFFEDEDGKEYIYKEPKLTPLSEISQRLLKLYSDKFGSENVKMIQDSGKVNPKDLDSKYAYIQVTHVIPFFDEKELQERKTEFERSHNIRRFMFEMPFTQTGKRQGGVEEQCKRRTILTAIHCFPYVKKRIPVMYQHHTDLNPIEVAIDEMSKKVAELRQLCSSAEVDMIKLQLKLQGSVSVQVNAGPLAYARAFLDDTNTKRYPDNKVKLLKEVFRQFVEACGQALAVNERLIKEDQLEYQEEMKANYREMAKELSEIMHEQICPLEEKTSVLPNSLHIFNAISGTPTSTMVHGMTSSSSVV
modifications: biotin at the amino-terminus
As to B1, the OD units at 30 µM peptide is 0.4 OD units and 1 OD units.

The record behind these values is US20060153851A1.
